Laboratory results from patent US20200283537A1 (UNIVERSITY OF VIRGINIA PATENT FOUNDATION, published 2020).

Assays:
[1] = biological target: Human folate receptor alpha-1 (FOLR1) on ovarian cancer cells (human, UniProt P15328 25-234); assay: cell-based or functional assay
[2] = biological target: Human death receptor 5 (DR5/TRAIL-R2) on cancer cells (human, UniProt O14763 56-440); assay: cell-based or functional assay
[3] = biological target: T1, Recombinant DR5 (rDR5), extracellular domain of DR5/TRAIL-R2 fused to IgG4-Fc; assay: ELISA on coated rDR5-IgG4-Fc (FIG. 12D)
T1 construct: It was biotinylated for BLI; also called rDR5-IgG4; DR5-Fc

Human folate receptor alpha-1 (FOLR1) on ovarian cancer cells, sequence (P15328 25-234): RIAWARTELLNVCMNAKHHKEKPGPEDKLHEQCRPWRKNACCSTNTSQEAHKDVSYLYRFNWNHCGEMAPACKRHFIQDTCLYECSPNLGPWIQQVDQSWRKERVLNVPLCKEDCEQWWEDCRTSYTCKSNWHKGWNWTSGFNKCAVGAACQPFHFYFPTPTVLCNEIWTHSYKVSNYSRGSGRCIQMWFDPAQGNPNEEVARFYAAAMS

B1: BaCa-1 (Bispecific-Anchored Cytotoxicity-Activator-1; farletuzumab IgG1 with a lexatumumab scFv at the C-terminus of the heavy chain) (bispecific antibody)
heavy: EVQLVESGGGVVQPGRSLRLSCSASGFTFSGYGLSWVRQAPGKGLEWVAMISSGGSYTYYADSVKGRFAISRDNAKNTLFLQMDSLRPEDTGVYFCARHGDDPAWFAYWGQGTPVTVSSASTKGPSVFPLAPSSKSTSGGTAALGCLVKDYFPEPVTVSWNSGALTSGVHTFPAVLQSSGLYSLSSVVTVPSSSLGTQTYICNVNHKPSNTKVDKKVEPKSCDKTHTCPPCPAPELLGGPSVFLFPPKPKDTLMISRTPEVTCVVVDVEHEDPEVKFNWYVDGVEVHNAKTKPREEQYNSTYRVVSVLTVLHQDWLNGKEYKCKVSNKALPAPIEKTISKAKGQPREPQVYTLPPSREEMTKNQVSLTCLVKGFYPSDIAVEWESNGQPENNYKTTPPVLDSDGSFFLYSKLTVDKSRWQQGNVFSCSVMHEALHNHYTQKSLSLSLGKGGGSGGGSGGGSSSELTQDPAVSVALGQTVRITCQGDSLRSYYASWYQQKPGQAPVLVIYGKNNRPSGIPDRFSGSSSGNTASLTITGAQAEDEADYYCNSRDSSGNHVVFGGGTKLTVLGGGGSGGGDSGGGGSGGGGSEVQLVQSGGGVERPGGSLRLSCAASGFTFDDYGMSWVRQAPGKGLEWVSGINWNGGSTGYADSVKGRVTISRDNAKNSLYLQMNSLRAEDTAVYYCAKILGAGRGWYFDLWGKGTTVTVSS
light: DIQLTQSPSSLSASVGDRVTITCSVSSSISSNNLHWYQQKPGKAPKPWIYGTSNLASGVPSRFSGSGSGTDYTFTISSLQPEDIATYYCQQWSSYPYMYTFGQGTKVEIKRTVAAPSVFIFPPSDEQLKSGTASVVCLLNNFYPREAKVQWKVDNALQSGNSQESVTEQDSKDSTYSLSSTLTLSKADYEKHKVYACEVTHQGLSSPVTKSFNRGEC
Question: What does the source list for B1?
Answer: cell killing, OVCAR-4 (high FOLR1) over Colo-205 (low FOLR1) cells [1]: ~70 fold; IC50 of cell viability, Colo-205 cells [2]: 3.07 nM

B2: BaCa antibody labelled with IRDye 800CW (bispecific antibody, human IgG1, kappa)
heavy: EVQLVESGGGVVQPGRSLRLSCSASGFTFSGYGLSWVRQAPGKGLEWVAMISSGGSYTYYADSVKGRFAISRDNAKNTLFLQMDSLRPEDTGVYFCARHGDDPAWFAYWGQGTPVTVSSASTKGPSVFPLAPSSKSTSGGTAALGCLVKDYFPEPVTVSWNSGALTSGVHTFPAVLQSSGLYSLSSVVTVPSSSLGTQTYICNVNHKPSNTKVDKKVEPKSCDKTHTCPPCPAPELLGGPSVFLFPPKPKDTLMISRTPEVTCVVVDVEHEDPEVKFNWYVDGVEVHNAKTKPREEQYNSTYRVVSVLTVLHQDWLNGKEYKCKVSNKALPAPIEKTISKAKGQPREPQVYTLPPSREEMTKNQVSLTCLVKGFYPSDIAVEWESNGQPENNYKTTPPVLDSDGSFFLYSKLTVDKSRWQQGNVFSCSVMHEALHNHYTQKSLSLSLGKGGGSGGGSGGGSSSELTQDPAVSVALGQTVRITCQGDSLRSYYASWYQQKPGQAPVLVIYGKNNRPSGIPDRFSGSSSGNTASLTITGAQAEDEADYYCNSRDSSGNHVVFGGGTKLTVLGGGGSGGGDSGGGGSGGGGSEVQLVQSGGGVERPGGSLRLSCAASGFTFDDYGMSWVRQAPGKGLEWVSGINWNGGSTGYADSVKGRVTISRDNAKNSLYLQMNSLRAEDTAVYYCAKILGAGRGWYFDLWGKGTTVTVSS
light: B1 light
modifications: IRDye 800CW NHS Ester label; sites not stated; IRDye 800CW NHS Ester label (0.04 mg dye per 1 mg of antibodies); sites not stated
notes: Lead BaCa (BaCa-1/HuBaCa), dye-conjugated; also called BaCa-IR800; IR800 labeled BaCa
Question: Does B2 bind [3]?
Answer: binds
